Experimental data reported in patent US20060078559A1 (EUROSCREEN S A, published 2006).
Where no end group is shown, it is not given here. [ ]: non-standard residue; d: D form. The star is where a group is joined. For = O=C*

How the values were obtained:
[1] = target: T1, human formyl peptide receptor-like 2 (FPRL2) (human) (UniProt P25089); assay: cell-based or functional assay
T1 sequence: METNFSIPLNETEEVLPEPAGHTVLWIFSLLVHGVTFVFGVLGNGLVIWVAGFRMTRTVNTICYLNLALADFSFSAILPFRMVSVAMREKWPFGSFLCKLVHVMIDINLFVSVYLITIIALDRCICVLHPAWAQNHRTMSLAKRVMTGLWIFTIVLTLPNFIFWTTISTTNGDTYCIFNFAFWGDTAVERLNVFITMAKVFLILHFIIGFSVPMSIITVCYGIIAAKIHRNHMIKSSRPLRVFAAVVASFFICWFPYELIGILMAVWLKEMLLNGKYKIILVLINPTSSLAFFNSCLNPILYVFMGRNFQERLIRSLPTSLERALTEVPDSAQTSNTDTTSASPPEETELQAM

[2] = target: T2, human formyl peptide receptor-like 2 (FPRL2) (human, UniProt P25089 1-353); assay: binding assay on FPRL2-expressing CHO-K1 cells
T2 construct: Expressed on CHO-K1 cells with or without G alpha 16 and apoaequorin; Also detected on monocyte-derived dendritic cells; also called FPR-like 2; FPRL2 receptor
T2 sequence: T1 sequence

[3] = target: T3, human FPR (formyl peptide receptor) (human, UniProt P21462 1-350); assay: competition radioligand binding on FPR-expressing CHO-K1 cells, tracer [125I]-WKYMVm
T3 construct: Expressed on CHO-K1 cells; also called FPR receptor
T3 chain: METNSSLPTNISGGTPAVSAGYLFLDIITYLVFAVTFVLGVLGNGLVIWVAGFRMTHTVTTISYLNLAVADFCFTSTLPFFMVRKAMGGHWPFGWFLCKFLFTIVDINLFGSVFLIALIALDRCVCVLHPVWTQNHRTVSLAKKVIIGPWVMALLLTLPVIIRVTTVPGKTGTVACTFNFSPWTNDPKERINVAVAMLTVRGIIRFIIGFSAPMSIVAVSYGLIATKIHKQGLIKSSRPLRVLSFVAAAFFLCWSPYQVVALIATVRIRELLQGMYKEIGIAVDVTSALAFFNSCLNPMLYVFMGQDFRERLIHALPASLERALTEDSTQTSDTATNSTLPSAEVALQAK
Procedure: (§1) FPRL2, FPRL1 and FPR-expressing CHO-K1 cells were plated in 24 wells plates (200,000 cells per well for FPRL2, and 100,000 cells per well for the two other receptors). The next day, the cells were washed twice with a KRH buffer containing 280 mM saccharose and, for FPRL1 and FPR, 0.1% NaN₃. […] Cells were washed twice with ice cold buffer, total radioactivity was recovered with 1 M NaOH and counted in a gamma counter for 2 min.

[4] = target: T4, human FPRL1 (FPR-like 1) (human, UniProt P25090 1-351); assay: competition radioligand binding on FPRL1-expressing CHO-K1 cells, tracer [125I]-WKYMVm
T4 construct: Expressed on CHO-K1 cells; also called FPRL1 receptor
T4 sequence: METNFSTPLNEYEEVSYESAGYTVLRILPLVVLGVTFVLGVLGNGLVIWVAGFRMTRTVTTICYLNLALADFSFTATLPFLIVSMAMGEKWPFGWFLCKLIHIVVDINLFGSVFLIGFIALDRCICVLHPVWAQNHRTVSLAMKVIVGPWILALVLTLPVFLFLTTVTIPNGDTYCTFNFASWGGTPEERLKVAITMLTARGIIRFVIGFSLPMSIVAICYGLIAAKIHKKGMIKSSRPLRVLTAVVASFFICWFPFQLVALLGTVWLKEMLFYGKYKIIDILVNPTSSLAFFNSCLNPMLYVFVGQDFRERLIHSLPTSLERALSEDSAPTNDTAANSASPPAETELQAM
Procedure: as §1

[5] = target: T3, human FPR (formyl peptide receptor); assay: cell-based or functional assay
[6] = target: T4, human FPRL1 (FPR-like 1); assay: cell-based or functional assay
[7] = target: T2, human formyl peptide receptor-like 2 …; assay: cell-based or functional assay
[8] = target: T2, human formyl peptide receptor-like 2 …; assay: competition binding on FPRL2-expressing CHO-K1 cells, tracer F2L-[125I]Tyr
Procedure: as §1
The EC50 and IC50 parameters of the dose-response curves were determined by non-linear regression using the Graphpad Prism software. The results represent the mean pEC50 or pIC50 (−Log values of EC50 or IC50 expressed in Mol/L) ± s.e.m. for at least three independent experiments (n).

[9] = target: T3, human FPR (formyl peptide receptor); assay: cell-based or functional assay
[10] = target: T1, human formyl peptide receptor-like 2 (FPRL2) (human); assay: competition binding on FPRL2-expressing CHO-K1 cells, tracer F2L-[125I]Tyr
[11] = target: T3, human FPR (formyl peptide receptor); assay: cell-based or functional assay
[12] = target: T4, human FPRL1 (FPR-like 1); assay: cell-based or functional assay; remark: listed apart in the source
[13] = target: T4, human FPRL1 (FPR-like 1); assay: cell-based or functional assay; remark: listed apart in the source

“A1, about 6 kD peptide of porcine heme-binding protein purified from porcine spleen (from UniProt P80015)” gave an EC50, aequorin-based functional assay (native fraction A1) [1] of 200 nM.

B1: F2L[7-21] (peptide)
peptide: NSLFGSVETWPWQVL
notes: Synthetic; also called [7-21]F2L; truncated F2L variant lacking the first six aminoacids
B1: no binding [2].

B2: WKYMVm (peptide)
peptide: WKYMV[dM]
notes: Bought from Phoenix Pharmaceuticals; also called W-hexapeptide; synthetic W peptide
B2 was tested, and the pEC50 (aequorin assay) (-Log of EC50 in Mol/L) [1] was under 6, the pEC50 (cAMP assay) (-Log of EC50 in Mol/L) [1] was under 6 and the “IC50 (read off the curve)” value [3] was about 70 nM. The “IC50 (read off the curve)” value [4] was about 20 nM, the “EC50 (read off the curve), aequorin luminescence [FPR]” value [5] was about 0.7 nM and the “EC50 (read off the curve), aequorin luminescence [FPRL1]” value [6] was about 0.04 nM. The “pEC50 (aequorin assay)” value [7] was < 6 -Log of EC50 in Mol/L and the “pIC50 (binding assay)” value [8] was < 6 -Log of IC50 in Mol/L.

For For-Met-Leu-Phe [FMLP (formyl-methionine-leucyl-phenylalanine)], the “EC50 (read off the curve), inhibition of cAMP accumulation [FPR]” value [9] was about 0.1 nM, the pEC50 (aequorin assay) (-Log of EC50 in Mol/L) [1] was under 6 and the pEC50 (cAMP assay) (-Log of EC50 in Mol/L) [1] was under 6. The pIC50 (binding assay) (-Log of IC50 in Mol/L) [10] was under 6, the “EC50 (read off the curve), aequorin luminescence [FPR]” value [5] was about 0.7 nM and the “pEC50 (aequorin assay)” value [11] was 9.39 -Log of EC50 in Mol/L. For the same molecule, the “pEC50 (cAMP assay)” value [11] was 10.2 -Log of EC50 in Mol/L, the “pEC50 (aequorin assay)” value [12] was 5.94 -Log of EC50 in Mol/L and the “pEC50 (cAMP assay)” value [12] was < 6 -Log of EC50 in Mol/L.

MLWRRKIGPQMTLSHAAG (also called CCL23-derived SHAAG peptide) [SHAAG peptide derived from CCL23 N-terminus] was tested, and the “EC50 (read off the curve), inhibition of cAMP accumulation [FPRL1]” value [13] was about 0.7 nM, the “EC50 (read off the curve), aequorin luminescence [FPRL1]” value [6] was about 0.5 nM and the “pEC50 (aequorin assay)” value [11] was < 6 -Log of EC50 in Mol/L. The “pEC50 (cAMP assay)” value [11] was < 6 -Log of EC50 in Mol/L, the “pEC50 (aequorin assay)” value [12] was 9.27 -Log of EC50 in Mol/L and the “pEC50 (cAMP assay)” value [12] was 9.23 -Log of EC50 in Mol/L. For the same molecule, the “pEC50 (aequorin assay)” value [7] was < 6 -Log of EC50 in Mol/L, the “pEC50 (cAMP assay)” value [7] was < 6 -Log of EC50 in Mol/L and the “pIC50 (binding assay)” value [8] was < 6 -Log of IC50 in Mol/L.
